Reference: article PMC7614769, “Structural basis for Fc receptor recognition of immunoglobulin M” (Nature structural & molecular biology, 2023)

Target: pentameric IgM-Fc core containing Cμ4, Cμ3 and the J chain (human, UniProt P01871 106-433; P01591 23-159, N-linked glycosylation at Asn563)
Experiment: BLI; FcμR (20 μg/ml) captured on AMC (anti-mouse IgG-Fc capture) biosensors by the anti-FcμR antibody RR-16; full-length or proteolysed IgM 0.08-10 nM in solution; PBS, 0.005% Tween 20, 25 °C; apparent Kd from response against IgM concentration, 1:1 binding model
Conditions: both partners purified

B1: human FcμR ectodomain (receptor, UniProt O60667 17-251, looked up)
chain: LRILPEVKVEGELGGSVTIKCPLPEMHVRIYLCREMAGSGTCGTVVSTTNFIKAEYKGRVTLKQYPRKNLFLVEVTQLTESDSGVYACGAGMNTDRGKTQKVTLNVHSEYEPSWEEQPMPETPKWFHLPYLFQMPAYASSSKFVTRVTTPAQRGKVPPVHHSSPTTQITHRPRVSRASSVAGDKPRTFLPSTTASKISALEGLLKPQTPSYNHHTRLHRQRALDYGSQSGREGQG
notes: FcμR, human, ectodomain; Full-length human FcμR has 390 aa; 251 aa are extracellular: 17-aa signal peptide, 107-aa Ig-like domain, 127-aa stalk; Only the Ig-like domain is resolved in the cryo-EM maps; also called TOSO; FAIM3; source: bought: R&D, Catalog 9494-MU-050, lyophilized, suspended in PBS
- Kd: 0.7 ± 0.1 nM
